# Strand notation (5' to 3'): a small letter for the sugar, then the base; units joined by * are phosphorothioate-linked, units joined directly phosphodiester-linked; [ ] holds rarer units or linkages, { } end groups; capitals alone tell only the bases. m = 2'-O-methyl; r = 2'-OH (RNA)
# B1: G000480: TTR sgRNA modified sequence, Human, SEQ ID No. 87; guide sequence of CR003353 (nucleic acid)
# guide: mA*mA*mA*rGrGrCrUrGrCrUrGrArUrGrArCrArCrCrUrGrUrUrUrUrArGrAmGmCmUmAmGmAmAmAmUmAmGmCrArArGrUrUrArArArArUrArArGrGrCrUrArGrUrCrCrGrUrUrArUrCrAmAmCmUmUmGmAmAmAmAmAmGmUmGmGmCmAmCmCmGmAmGmUmCmGmGmUmGmCmU*mU*mU*mU
# B2: G000488: TTR sgRNA modified sequence, Human, SEQ ID No. 95; guide sequence of CR003346 (nucleic acid)
# guide: mA*mA*mA*rGrUrUrCrUrArGrArUrGrCrUrGrUrCrCrGrGrUrUrUrUrArGrAmGmCmUmAmGmAmAmAmUmAmGmCrArArGrUrUrArArArArUrArArGrGrCrUrArGrUrCrCrGrUrUrArUrCrAmAmCmUmUmGmAmAmAmAmAmGmUmGmGmCmAmCmCmGmAmGmUmCmGmGmUmGmCmU*mU*mU*mU
# B3: G000489: TTR sgRNA modified sequence, Human, SEQ ID No. 96; guide sequence of CR003344 (nucleic acid)
# guide: mU*mU*mU*rGrArCrCrArUrCrArGrArGrGrArCrArCrUrGrUrUrUrUrArGrAmGmCmUmAmGmAmAmAmUmAmGmCrArArGrUrUrArArArArUrArArGrGrCrUrArGrUrCrCrGrUrUrArUrCrAmAmCmUmUmGmAmAmAmAmAmGmUmGmGmCmAmCmCmGmAmGmUmCmGmGmUmGmCmU*mU*mU*mU
# B4: G000502: TTR Cyno specific sgRNA modified sequence, SEQ ID No. 114; guide sequence of CR000689; cross homologous between mouse and cyno (nucleic acid)
# guide: mA*mC*mA*rCrArArArUrArCrCrArGrUrCrCrArGrCrGrGrUrUrUrUrArGrAmGmCmUmAmGmAmAmAmUmAmGmCrArArGrUrUrArArArArUrArArGrGrCrUrArGrUrCrCrGrUrUrArUrCrAmAmCmUmUmGmAmAmAmAmAmGmUmGmGmCmAmCmCmGmAmGmUmCmGmGmUmGmCmU*mU*mU*mU
# B5: G000481: TTR sgRNA modified sequence, Human, SEQ ID No. 88; guide sequence of CR003345 (nucleic acid)
# guide: mU*mC*mU*rArGrArArCrUrUrUrGrArCrCrArUrCrArGrGrUrUrUrUrArGrAmGmCmUmAmGmAmAmAmUmAmGmCrArArGrUrUrArArArArUrArArGrGrCrUrArGrUrCrCrGrUrUrArUrCrAmAmCmUmUmGmAmAmAmAmAmGmUmGmGmCmAmCmCmGmAmGmUmCmGmGmUmGmCmU*mU*mU*mU
# B6: G000482: TTR sgRNA modified sequence, Human, SEQ ID No. 89; guide sequence of CR003365 (nucleic acid)
# guide: mU*mG*mU*rArGrArArGrGrGrArUrArUrArCrArArArGrGrUrUrUrUrArGrAmGmCmUmAmGmAmAmAmUmAmGmCrArArGrUrUrArArArArUrArArGrGrCrUrArGrUrCrCrGrUrUrArUrCrAmAmCmUmUmGmAmAmAmAmAmGmUmGmGmCmAmCmCmGmAmGmUmCmGmGmUmGmCmU*mU*mU*mU
# B7: G000490: TTR sgRNA modified sequence, Human, SEQ ID No. 97; guide sequence of CR003366 (nucleic acid)
# guide: mA*mA*mA*rUrArGrArCrArCrCrArArArUrCrUrUrArCrGrUrUrUrUrArGrAmGmCmUmAmGmAmAmAmUmAmGmCrArArGrUrUrArArArArUrArArGrGrCrUrArGrUrCrCrGrUrUrArUrCrAmAmCmUmUmGmAmAmAmAmAmGmUmGmGmCmAmCmCmGmAmGmUmCmGmGmUmGmCmU*mU*mU*mU
# B8: G000493: TTR sgRNA modified sequence, Human, SEQ ID No. 100; guide sequence of CR003368 (nucleic acid)
# guide: mA*mA*mG*rUrGrCrCrUrUrCrCrArGrUrArArGrArUrUrGrUrUrUrUrArGrAmGmCmUmAmGmAmAmAmUmAmGmCrArArGrUrUrArArArArUrArArGrGrCrUrArGrUrCrCrGrUrUrArUrCrAmAmCmUmUmGmAmAmAmAmAmGmUmGmGmCmAmCmCmGmAmGmUmCmGmGmUmGmCmU*mU*mU*mU
# B9: G000500: TTR sgRNA modified sequence, Human, SEQ ID No. 107; guide sequence of CR003337 (nucleic acid)
# guide: mC*mC*mA*rGrUrCrCrArGrCrArArGrGrCrArGrArGrGrGrUrUrUrUrArGrAmGmCmUmAmGmAmAmAmUmAmGmCrArArGrUrUrArArArArUrArArGrGrCrUrArGrUrCrCrGrUrUrArUrCrAmAmCmUmUmGmAmAmAmAmAmGmUmGmGmCmAmCmCmGmAmGmUmCmGmGmUmGmCmU*mU*mU*mU
# Experiments:
# [1] = tested on: TTR; test: TTR editing in primary cyno hepatocytes electroporated with Spy Cas9 protein and sgRNAs (Tables 14, 15); format: cell-based, cynomolgus monkey
# Method in brief: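 Spy Cas9 RNPs with boiled sgRNAs electroporated (Lonza P3 buffer, program EX-147) into primary cynomolgus hepatocytes; harvest at 24, 48 or 72 h. TTR target site PCR-amplified and sequenced on Illumina MiSeq, reads aligned to mf5; percent editing is reads with indels or substitutions over total reads.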
# [2] = tested on: TTR; test: EC50 and maximum editing in primary human hepatocytes treated with LNP formulated U-depleted Spy Cas9 mRNA and sgRNAs (Tables 19, 21); format: cell-based; parameters: key: % of sequence reads with indels or substitutions over total reads; conditions: dose response
# Experimental: (§1) Primary liver hepatocytes. Primary human liver hepatocytes (PHH) and primary cynomolgus liver hepatocytes (PCH) (Gibco) were cultured per the manufacturer's protocol (Invitrogen, protocol 11.28.2012). In brief, the cells were thawed and resuspended in hepatocyte thawing medium with supplements (Gibco, Cat. CM7000) followed by centrifugation at 100 g for 10 minutes for human and 80 g for 4 minutes for cyno. The supernatant was discarded and the pelleted cells resuspended in hepatocyte plating medium plus supplement pack (Invitrogen, Cat. A1217601 and CM3000). Cells were counted and plated on Bio-coat collagen I coated 96-well plates (ThermoFisher, Cat. 877272) at a density of 33,000 cells/well for human or 60,000 cells/well for cyno (or 65,000 cells/well when assaying effects on TTR protein, described further below). Plated cells were allowed to settle and adhere for 6 or 24 hours in a tissue culture incubator at 37° C. and 5% CO2 atmosphere. After incubation cells were checked for monolayer formation and media was replaced with hepatocyte culture medium with serum-free supplement pack (Invitrogen, Cat. A1217601 and CM4000).
# (§2) For LNPs prepared using the cross-flow technique, the LNPs were formed by impinging jet mixing of the lipid in ethanol with two volumes of RNA solutions and one volume of water. The lipid in ethanol is mixed through a mixing cross with the two volumes of RNA solution. A fourth stream of water is mixed with the outlet stream of the cross through an inline tee. (See WO2016010840 FIG. 2.) The LNPs were held for 1 hour at room temperature, and further diluted with water (approximately 1:1 v/v). Diluted LNPs were concentrated using tangential flow filtration on a flat sheet cartridge (Sartorius, 100 kD MWCO) and then buffer exchanged by diafiltration into 50 mM Tris, 45 mM NaCl, 5% (w/v) sucrose, pH 7.5 (TSS). Alternatively, the final buffer exchange into TSS was completed with PD-10 desalting columns (GE). If required, formulations were concentrated by centrifugation with Amicon 100 kDa centrifugal filters (Millipore). The resulting mixture was then filtered using a 0.2 μm sterile filter. The final LNP was stored at 4° C. or −80° C. until further use.
# (§3) To quantitatively determine the efficiency of editing at the target location in the genome, sequencing was utilized to identify the presence of insertions and deletions introduced by gene editing.
# (§4) Primers were designed around the target site within the gene of interest (e.g. TTR), and the genomic area of interest was amplified.
# (§5) Additional PCR was performed per the manufacturer's protocols (Illumina) to add chemistry for sequencing. The amplicons were sequenced on an Illumina MiSeq instrument. The reads were aligned to a reference genome (e.g., the human reference genome (hg38), the cynomologus reference genome (mf5), the rat reference genome (rn6), or the mouse reference genome (mm10)) after eliminating those having low quality scores. The resulting files containing the reads were mapped to the reference genome (BAM files), where reads that overlapped the target region of interest were selected and the number of wild type reads versus the number of reads which contain an insertion, substitution, or deletion was calculated.
# (§6) The editing percentage (e.g., the “editing efficiency” or “percent editing” or “indel frequency”) is defined as the total number of sequence reads with insertions/deletions (“indels”) or substitutions over the total number of sequence reads, including wild type.
# (§7) Lipid nanoparticle formulations of modified sgRNAs targeting human TTR and the cyno matched sgRNA sequences were tested on primary human hepatocytes and primary cyno hepatocytes in a dose response curve. Primary human and cyno hepatocytes were plated as described in Example 1. Both cell lines were incubated at 37° C., 5% CO2 for 24 hours prior to treatment with LNPs. […]
# [3] = tested on: TTR; test: EC50 and maximum editing in primary cyno hepatocytes treated with LNP formulated U-depleted Spy Cas9 mRNA and sgRNAs (Tables 20, 22); format: cell-based, cynomolgus monkey; parameters: key: % of sequence reads with indels or substitutions over total reads; conditions: dose response
# Experimental: as §1, §2, §3, §4, §5, §6, §7
# [4] = Table 14, primary cyno hepatocytes electroporated with Spy Cas9 protein (RNP) and sgRNAs
# [5] = Table 19, LNP with U-depleted Spy Cas9 mRNA and human specific sgRNAs
# [6] = Table 20, LNP with U-depleted Spy Cas9 mRNA and human specific sgRNAs
# [7] = Table 15, primary cyno hepatocytes electroporated with Spy Cas9 protein (RNP) and cyno specific sgRNAs
molecule,measurement,setting,value
B1,Avg % Deletion,[1]; [4],0.37%
same,Avg % Edit,[1]; [4],10.20%
same,Avg % Insert,[1]; [4],9.83%
same,Max Editing,[2]; [5],98.69
same,Max Editing,[3]; [6],20.32
B2,Avg % Deletion,[1]; [4],4.27%
same,Avg % Edit,[1]; [4],9.63%
same,Avg % Insert,[1]; [4],5.37%
same,Max Editing,[2]; [5],95.83
same,Max Editing,[3]; [6],21.63
B3,Avg % Deletion,[1]; [4],14.17%
same,Avg % Edit,[1]; [4],67.53%
same,Avg % Insert,[1]; [4],53.53%
same,Max Editing,[2]; [5],86.33
same,Max Editing,[3]; [6],89.21
B4,Avg % Deletion,[1]; [7],81.27%
same,Avg % Edit,[1]; [7],95.10%
same,Avg % Insert,[1]; [7],13.97%
same,Max Editing,"[2]; Table 21, LNP with U-depleted Spy Cas9 mRNA and cyno specific sgRNAs",91.50
same,Max Editing,"[3]; Table 22, LNP with U-depleted Spy Cas9 mRNA and cyno specific sgRNAs",100.05
B5,Avg % Deletion,[1]; [4],35.50%
same,Avg % Edit,[1]; [4],69.13%
same,Avg % Insert,[1]; [4],33.73%
same,Max Editing,[2]; [5],87.05
same,Max Editing,[3]; [6],95.07
B6,Avg % Deletion,[1]; [4],20.03%
same,Avg % Edit,[1]; [4],75.17%
same,Avg % Insert,[1]; [4],55.23%
same,Max Editing,[2]; [5],97.02
same,Max Editing,[3]; [6],97.47
B7,Avg % Deletion,[1]; [4],7.27%
same,Avg % Edit,[1]; [4],61.67%
same,Avg % Insert,[1]; [4],54.47%
same,Max Editing,[2]; [5],94.16
same,Max Editing,[3]; [6],90.76
B8,Avg % Deletion,[1]; [4],2.10%
same,Avg % Edit,[1]; [4],50.13%
same,Avg % Insert,[1]; [4],48.07%
same,Max Editing,[2]; [5],63.95
same,Max Editing,[3]; [6],61.15
B9,Avg % Deletion,[1]; [4],2.63%
same,Avg % Edit,[1]; [4],45.20%
same,Avg % Insert,[1]; [4],42.60%
same,Max Editing,[2]; [5],88.70
same,Max Editing,[3]; [6],58.04
